Earlier results on 2 substances are cited in article PMC3511906.

Where two headings read alike, the source gives them in different places.

For data set [1], the target named is CXCR1 (Mus musculus) (UniProt Q810W6).
For data set [2] the target is unchanged. The source holds these as a separate data set.
Another data set concerns the target CXCR2 (Mus musculus) (UniProt P35343).

MIP-2, sequence (P10889 28-100): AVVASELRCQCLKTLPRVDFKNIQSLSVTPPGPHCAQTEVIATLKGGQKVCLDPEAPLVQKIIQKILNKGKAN
CXCR1 (Mus musculus), sequence (Q810W6 whole entry): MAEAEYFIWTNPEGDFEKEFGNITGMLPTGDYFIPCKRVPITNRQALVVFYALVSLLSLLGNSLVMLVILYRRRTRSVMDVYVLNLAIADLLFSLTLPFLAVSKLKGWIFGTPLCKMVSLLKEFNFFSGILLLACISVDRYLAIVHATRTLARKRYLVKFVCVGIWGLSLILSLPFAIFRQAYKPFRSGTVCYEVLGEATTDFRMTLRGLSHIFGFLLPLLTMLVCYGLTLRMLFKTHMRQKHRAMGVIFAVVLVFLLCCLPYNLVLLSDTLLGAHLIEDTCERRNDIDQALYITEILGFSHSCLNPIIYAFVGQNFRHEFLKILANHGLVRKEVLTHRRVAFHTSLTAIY
CXCL8, sequence (P10145 28-99): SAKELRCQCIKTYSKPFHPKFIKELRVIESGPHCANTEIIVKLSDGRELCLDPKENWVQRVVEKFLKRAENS
CXCR2 (Mus musculus), sequence (P35343 whole entry): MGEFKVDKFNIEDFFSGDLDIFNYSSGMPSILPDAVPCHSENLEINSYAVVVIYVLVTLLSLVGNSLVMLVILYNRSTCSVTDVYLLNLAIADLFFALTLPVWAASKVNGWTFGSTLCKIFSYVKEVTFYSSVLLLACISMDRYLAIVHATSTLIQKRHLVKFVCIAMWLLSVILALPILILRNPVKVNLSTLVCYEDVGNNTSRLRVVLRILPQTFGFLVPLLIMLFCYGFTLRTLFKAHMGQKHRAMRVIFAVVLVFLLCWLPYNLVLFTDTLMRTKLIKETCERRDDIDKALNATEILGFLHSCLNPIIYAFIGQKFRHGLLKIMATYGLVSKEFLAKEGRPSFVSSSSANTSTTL

Regarding CXCL8 (from UniProt P10145), in the data set with CXCR1 (Mus musculus) [1], the Kd was 10 nM.

Consider MIP-2 (from UniProt P10889), for which the Kd with CXCR1 (Mus musculus) [2] was 643 nM; with CXCR2 (Mus musculus) it was 3.5 nM.

For orientation: Kd means the free concentration of one partner at which half of the binding sites on the other are occupied at equilibrium, for simple one-to-one binding.
